According to patent US20080027145A1 (published 2008):
Read-outs that look alike come from different tables or passages of the source. Blank lines part the entries; values can stand above or below the binder they belong to.

How the values were obtained:
human Bcl-2 ΔC22 [1] = target: T1, human Bcl-2 ΔC22 (human, UniProt P10415 1-217); assay: Biacore solution competition against immobilised mouse wtBimBH3
T1 construct: Recombinant, bacterial, N-terminal HexaHis fusion; hydrophobic C-terminus removed; also called hBcl-2
T1 sequence (P10415 other isoform, or with tags, fused parts or gaps mutant limits assumed): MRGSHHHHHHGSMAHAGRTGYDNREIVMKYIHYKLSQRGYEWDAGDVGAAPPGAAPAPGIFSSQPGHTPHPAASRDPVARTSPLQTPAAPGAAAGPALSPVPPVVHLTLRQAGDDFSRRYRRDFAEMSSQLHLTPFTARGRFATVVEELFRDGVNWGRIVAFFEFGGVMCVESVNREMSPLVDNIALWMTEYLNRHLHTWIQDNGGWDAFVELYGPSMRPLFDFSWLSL
From the text: (§1) The baseline response (control channel) was subtracted to obtain the absolute binding response. […] Theoretically, IC50=[A]/2+KD, where [A] is the analyte concentration.
(§2) To assess if other BH3 peptides bind pro-survival proteins similarly, we directly compared their binding affinities in solution using a competitive binding assay. […] As the IC50 values reflect relative binding affinities (see Experimental Procedures), we used this assay to compare the binding affinities of eight BH3 peptides (Table 3) to the five pro-survival proteins.

human Bcl-xL ΔC24 [2] = target: T2, human Bcl-xL ΔC24 (human, UniProt Q07817 1-209); assay: as above
T2 construct: Expressed as GST fusion and cleaved off the glutathione column; also called hBcl-xL ΔC24
T2 sequence (Q07817 other isoform, or with tags, fused parts or gaps mutant limits assumed): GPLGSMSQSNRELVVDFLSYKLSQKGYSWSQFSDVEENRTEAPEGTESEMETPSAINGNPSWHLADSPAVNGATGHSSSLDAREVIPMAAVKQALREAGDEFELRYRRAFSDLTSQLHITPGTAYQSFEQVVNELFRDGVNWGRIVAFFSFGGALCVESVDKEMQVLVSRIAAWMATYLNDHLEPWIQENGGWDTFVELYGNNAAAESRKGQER
From the text: as §1, §2

[3] = target: T3, human Bcl-w ΔC29 (C29S A128E) (human, UniProt Q92843 1-164); assay: as above
T3 construct: range 1-164; residues 1-209), which are those of Bcl-xL; also called hBcl-w
T3 sequence: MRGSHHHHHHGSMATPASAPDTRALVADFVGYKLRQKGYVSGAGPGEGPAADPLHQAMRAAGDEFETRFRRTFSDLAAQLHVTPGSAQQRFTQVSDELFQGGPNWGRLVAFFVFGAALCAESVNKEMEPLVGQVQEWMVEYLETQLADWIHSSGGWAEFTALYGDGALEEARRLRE
From the text: as §1, §2

[4] = target: T4, FLAG-tagged mouse Mcl-1 (full-length) (mouse, UniProt P97287 1-331); assay: co-immunoprecipitation from 293T lysates, 35S fluorography (D) and immunoblot of the same filters (E) [E]
T4 construct: whole, on cells; Full-length, expressed in 293T cells, precipitated from lysates; also called FLAG-Mcl-1; Mcl-1 (in cells)
T4 sequence (P97287 other isoform, or with tags, fused parts or gaps): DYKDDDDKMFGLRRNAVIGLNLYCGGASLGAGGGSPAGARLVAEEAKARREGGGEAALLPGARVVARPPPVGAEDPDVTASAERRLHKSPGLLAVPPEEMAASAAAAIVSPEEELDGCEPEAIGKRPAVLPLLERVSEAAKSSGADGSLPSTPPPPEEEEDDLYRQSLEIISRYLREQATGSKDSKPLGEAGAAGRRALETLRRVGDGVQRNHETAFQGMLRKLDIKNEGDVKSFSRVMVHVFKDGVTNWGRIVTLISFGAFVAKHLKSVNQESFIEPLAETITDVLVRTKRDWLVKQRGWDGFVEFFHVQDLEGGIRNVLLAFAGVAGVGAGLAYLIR
From the text: (§3) Equivalent ³⁵S-labeled lysates harvested from 293T cells were immunoprecipitated with antibodies to the HA, FLAG (FL) or control (C) tags.
(§4) The maintenance, transfection and metabolic labeling of the human embryonic kidney (HEK) 293T cells with ³⁵S-methionine/cysteine (NEN) as well as co-immunoprecipitation have been described (Huang et al., Supra; Moriishi et al., Proc Natl Acad Sci USA 96:9683-9688, 1999; O'Conner et al., Supra). Briefly, equivalent TCA-precipitable lysates were immunoprecipiated using the mouse monoclonal antibodies to HA (HA.11; CRP), FLAG (M2; Sigma) and control Glu-Glu (CRP) tags. The proteins were resolved by SDS:PAGE, transferred onto nitrocellulose membranes and detected by fluorography (Amplify; Amersham Biosciences).

[5] = target: T5, FLAG-tagged human Bcl-2 (full-length) (human, UniProt P10415 1-239); assay: co-immunoprecipitation from 293T lysates, 35S fluorography (F) and immunoblot of the same filters (G) [G]
T5 construct: whole, on cells; Full-length, expressed in 293T cells, precipitated from lysates; also called FLAG-Bcl-2; Bcl-2 (in cells)
T5 sequence (P10415 other isoform, or with tags, fused parts or gaps): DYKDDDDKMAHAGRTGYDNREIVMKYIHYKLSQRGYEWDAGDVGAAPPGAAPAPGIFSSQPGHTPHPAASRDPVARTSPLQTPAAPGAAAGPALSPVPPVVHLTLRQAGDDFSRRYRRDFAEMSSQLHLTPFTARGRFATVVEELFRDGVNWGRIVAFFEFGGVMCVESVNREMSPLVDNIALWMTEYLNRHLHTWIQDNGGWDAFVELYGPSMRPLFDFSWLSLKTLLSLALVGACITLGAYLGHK
From the text: as §3, §4

[6] = target: T6, FLAG-tagged human Bcl-xL (full-length) (human, UniProt Q07817 1-233); assay: as above
T6 construct: whole, on cells; Full-length, expressed in 293T cells, precipitated from lysates; also called FLAG-Bcl-xL; Bcl-xL (in cells)
T6 sequence (Q07817 other isoform, or with tags, fused parts or gaps): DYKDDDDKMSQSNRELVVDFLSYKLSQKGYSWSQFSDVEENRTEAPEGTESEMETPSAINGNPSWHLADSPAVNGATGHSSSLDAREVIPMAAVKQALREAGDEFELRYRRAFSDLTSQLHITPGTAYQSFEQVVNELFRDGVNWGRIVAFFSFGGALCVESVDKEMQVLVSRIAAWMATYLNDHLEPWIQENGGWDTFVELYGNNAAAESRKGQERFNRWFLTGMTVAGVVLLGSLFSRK
From the text: as §3, §4

human Bcl-xL ΔC24 [7] = target: T2, human Bcl-xL ΔC24; assay: Biacore solution competition against immobilised mouse wtBimBH3; remark: listed apart in the source
From the text: FIG. 1 is a graphical representation showing competitive binding assays. […] (C) Solution competition assay. […] The line (at 430 s) indicates the response used for calculating the IC50. […] (Irregular responses after 500 s are due to washing the chips after analyte dissociation). Color reproductions are available from the patentees on request.
The baseline response (control channel) was subtracted to obtain the absolute binding response.

human Bcl-xL ΔC24 [8] = target: T2, human Bcl-xL ΔC24; assay: solution competition on Biacore, immobilised m wtBimBH3
From the text: as §1

human Bcl-xL ΔC24 [9] = target: T2, human Bcl-xL ΔC24; assay: SPR direct binding, protein over immobilised NoxaBH3
Procedure: Affinity measurements were performed at room temperature on a Biacore 3000 biosensor (Biacore) with HBS (10 mM HEPES pH 7.2, 150 mM NaCl, 3.4 mM EDTA, 0.005% Tween 20) as the running buffer. […] Residual bound proteins were desorbed with 50 mM NaOH or 6 M GuHCl (pH 7.2), followed by two washes with running buffer. Binding kinetics were derived from sensorgrams, following subtraction of baseline responses, using BIA evaluation software (version 3, Biacore) (Wilson-Annan et al., Supra).

human Bcl-xL ΔC24 [10] = target: T2, human Bcl-xL ΔC24; assay: solution competition on Biacore (FIG. 9C)
From the text: as §1

human Bcl-2 ΔC22 [11] = target: T1, human Bcl-2 ΔC22; assay: Biacore solution competition against immobilised mouse wtBimBH3; remark: listed apart in the source
From the text: as §1

[12] = target: T3, human Bcl-w ΔC29 (C29S A128E); assay: as above; remark: listed apart in the source
From the text: as §1

human Bcl-xL ΔC24 [13] = target: T2, human Bcl-xL ΔC24; assay: solution competition on Biacore (IC50 ratio)
[14] = target: T3, human Bcl-w ΔC29 (C29S A128E); assay: solution competition on Biacore (FIG. 9C)
From the text: as §1

human Bcl-xL ΔC24 [15] = target: T2, human Bcl-xL ΔC24; assay: solution competition on Biacore
human Bcl-2 ΔC22 [16] = target: T1, human Bcl-2 ΔC22; assay: solution competition on Biacore
[17] = target: T3, human Bcl-w ΔC29 (C29S A128E); assay: solution competition on Biacore

B3: HA-tagged full-length mouse Noxa (other)
chain: YPYDVPDYAMPGRKARRNAPVNPTRAELPPEFAAQLRKIGDKVYCTWSAPDITVVLAQMPGKSQKSRMRSPSPTRVPADLKDECAQLRRIGDKVNLRQKLLNLISKLFNLVT
notes: whole, on cells; also called HA-Noxa; Noxa (full-length mouse Noxa bearing two BH3s)
- binding result [5]: no binding
- binding result [6]: no binding

B4: Bid (81-104) BH3 peptide, human (peptide)
peptide: DIIRNIARHLAQVGDSMDRSIPPG
notes: also called BidBH3
- IC50 (human Bcl-2 ΔC22 [1]): 6.8 µM
- IC50 (human Bcl-xL ΔC24 [2]): 0.082 µM
- IC50 [3]: 0.04 µM

B5: Bad (103-128) BH3 peptide, human (peptide)
peptide: NLWAAQRYGRELRRMSDEFVDSFKKG
notes: also called BadBH3
- IC50 (human Bcl-2 ΔC22 [1]): 0.016 µM
- IC50 (human Bcl-xL ΔC24 [2]): 0.0053 µM
- IC50 [3]: 0.03 µM

B6: Hrk (26-51) BH3 peptide, human (peptide)
peptide: not shown
notes: also called HrkBH3
- IC50 (human Bcl-2 ΔC22 [1]): 0.32 µM
- IC50 (human Bcl-xL ΔC24 [2]): 0.0037 µM
- IC50 [3]: 0.049 µM

B8: Noxa (18-43) BH3 peptide, human (peptide)
peptide: PAELEVECATQLRRFGDKLNFRQKLL
notes: also called NoxaBH3; wt NoxaBH3
- IC50 (human Bcl-2 ΔC22 [1]): > 100 µM
- IC50 (human Bcl-xL ΔC24 [2]): > 100 µM
- IC50 [3]: > 100 µM
- IC50 (human Bcl-xL ΔC24 [8]): > 100 µM
- binding result (human Bcl-xL ΔC24 [9]): no binding

B9: Noxa (18-43) mt1 (peptide)
peptide: PAELEVECATQLRRFGDELNFRQKLL
notes: also called Noxa m1; K35E
- fold increase of binding against wt NoxaBH3 (human Bcl-xL ΔC24 [10]): > 20 fold
- IC50 (human Bcl-2 ΔC22 [11]): > 100 µM
- binding result [12]: binds
- IC50 (human Bcl-xL ΔC24 [8]): 5.8 µM
- fold tighter than the wild-type peptide (human Bcl-xL ΔC24 [13]): ≥ 17 fold

The next lines start with the values.

- IC50 (human Bcl-2 ΔC22 [1]): 0.003 µM
- IC50 (human Bcl-xL ΔC24 [2]): 0.0097 µM
- IC50 [3]: 0.0098 µM
B1: m Bmf (128-151) BH3 peptide (peptide)
peptide: HRAEVQIARKLQCIADQFHRLHTQ
notes: also called BmfBH3

- binding result [4]: no binding
B2: HA-tagged full-length mouse Bad (other)
chain: YPYDVPDYAMGTPKQPSLAPAHALGLRKSDPGIRSLGSDAGGRRWRPAAQSMFQIPEFEPSEQEDASATDRGLGPSLTEDQPGPYLAPGLLGSNIHQQGRAATNSHHGGAGAMETRSRHSSYPAGTEEDEGMEEELSPFRGRSRSAPPNLWAAQRYGRELRRMSDEFEGSFKGLPRPKSAGTATQMRQSAGWTRIIQSWWDRNLGKGGSTPSQ
notes: whole, on cells; also called HA-Bad; Bad (in cells)

- IC50 (human Bcl-xL ΔC24 [2]): 0.043 µM
- IC50 [3]: 0.012 µM
- IC50 (read off the curve) (human Bcl-xL ΔC24 [7]): ~0.04 µM
B7: Bik (51-75) BH3 peptide, human (peptide)
peptide: MEGSDALALRLACIGDEMDVSLRAP
notes: also called BikBH3; hBik

- fold increase of binding against wt NoxaBH3 (human Bcl-xL ΔC24 [10]): > 100 fold
- IC50 (human Bcl-2 ΔC22 [11]): > 100 µM
- binding result [12]: binds
- IC50 (human Bcl-xL ΔC24 [8]): 1.1 µM
- fold tighter than wild type (human Bcl-xL ΔC24 [13]): ≥ 90 fold
B10: Noxa (18-43) mt2 (peptide)
peptide: PAELEVECATQLRRIGDKLNFRQKLL
notes: also called Noxa m2; F32I

- IC50 [14]: 0.41 µM
- binding result (human Bcl-2 ΔC22 [11]): binds
- IC50 (human Bcl-xL ΔC24 [8]): 0.11 µM
- IC50 (human Bcl-xL ΔC24 [15]): 0.1 µM
B11: Noxa (18-43) mt3 (peptide)
peptide: PAELEVECATQLRRIGDELNFRQKLL
notes: also called Noxa m3 (peptide); double mutant K35E F32I

- binding result (human Bcl-2 ΔC22 [16]): no binding
- binding result (human Bcl-xL ΔC24 [15]): no binding
- binding result [17]: no binding
B12: m Noxa1 (16-41) BH3 peptide (peptide)
peptide: RAELPPEFAAQLRKIGDKVYCTWSAP
notes: also called mouse Noxa BH3 peptide 1

- binding result (human Bcl-2 ΔC22 [16]): no binding
- binding result (human Bcl-xL ΔC24 [15]): no binding
- binding result [17]: no binding
B13: m Noxa2 (68-93) BH3 peptide (peptide)
peptide: PADLKDECAQLRRIGDKVNLRQKLLN
notes: also called mNoxa B; mouse Noxa BH3 peptide 2
